In PMC7132340 (EMBO Reports, 2020):

Each binder was assayed against T1, WT human CXCL12α (human, UniProt P48061-2 22-89, 15N-labelled in one NMR orientation; FITC in flow cytometry (Fig 6H)) (assay: far-Western, overlay or dot blot; solid-phase immunoassay: 100 ng of Gal-3 or Gal-3 CRD variants on nitrocellulose, 120 nM CXCL12 overnight, SA-HRP, densitometry (Appendix Fig S7)). Conditions: both partners purified.
T1 construct: CXCL12 alpha, human, codon-optimised cDNA, released from the thioredoxin-His fusion by enterokinase; also called CXCL12 FITC; source: E. coli BL21(DE3), from inclusion bodies, purified (HisTrap, Heparin HP, enterokinase cleavage, Mono S); not shown: thioredoxin, N-terminal, cleaved; His tag, N-terminal, cleaved

binding result	Binder
binds	Gal‐3 CRD mutant E185A (domain or fragment, UniProt P17931 108-250, looked up, The limits are those printed for the wild-type CRD) GAPAGPLIVPYNLPLPGGVVPRMLITILGTVKPNANRIALDFQRGNDVAFHFNPRFNENNRRVIVCNTKLDNNWGREARQSVFPFESGKPFKIQVLVEPDHFKVAVNDAHLLQYNHRVKKLNEISKLGISGDIDLTSASYTMI
binds	Gal‐3 CRD mutant N222A (domain or fragment, UniProt P17931 108-250, looked up, The limits are those printed for the wild-type CRD) GAPAGPLIVPYNLPLPGGVVPRMLITILGTVKPNANRIALDFQRGNDVAFHFNPRFNENNRRVIVCNTKLDNNWGREERQSVFPFESGKPFKIQVLVEPDHFKVAVNDAHLLQYAHRVKKLNEISKLGISGDIDLTSASYTMI
binds	Gal‐3 CRD mutant N160A (domain or fragment, UniProt P17931 108-250, looked up, The limits are those printed for the wild-type CRD) GAPAGPLIVPYNLPLPGGVVPRMLITILGTVKPNANRIALDFQRGNDVAFHFAPRFNENNRRVIVCNTKLDNNWGREERQSVFPFESGKPFKIQVLVEPDHFKVAVNDAHLLQYNHRVKKLNEISKLGISGDIDLTSASYTMI

Each binder was assayed against T1, WT human CXCL12α (assay: NMR titration; 1H-15N HSQC, 15N-labelled protein with unlabelled partner (10 μM 15N-CXCL12 with 330 μM Gal-3 CRD; 30 μM 15N-Gal-3 CRD with 500 μM CXCL12; 30 μM 15N-CXCL12 with 500 μM Gal-3 CRD mutants), 20 mM sodium acetate pH 4.5, 4.5 mM lactose, 37°C). Conditions: both partners purified.

CXCL12 sequence-averaged Δδ	Binder
0.0073 ppm	Gal‐3 CRD mutant Q220E (domain or fragment, UniProt P17931 108-250, looked up, The limits are those printed for the wild-type CRD) GAPAGPLIVPYNLPLPGGVVPRMLITILGTVKPNANRIALDFQRGNDVAFHFNPRFNENNRRVIVCNTKLDNNWGREERQSVFPFESGKPFKIQVLVEPDHFKVAVNDAHLLEYNHRVKKLNEISKLGISGDIDLTSASYTMI
0.0036 ppm	Gal‐3 CRD mutant Q220K (domain or fragment, UniProt P17931 108-250, looked up, The limits are those printed for the wild-type CRD) GAPAGPLIVPYNLPLPGGVVPRMLITILGTVKPNANRIALDFQRGNDVAFHFNPRFNENNRRVIVCNTKLDNNWGREERQSVFPFESGKPFKIQVLVEPDHFKVAVNDAHLLKYNHRVKKLNEISKLGISGDIDLTSASYTMI
0.0048 ppm	Gal‐3 CRD mutant H217A (domain or fragment, UniProt P17931 108-250, looked up, The limits are those printed for the wild-type CRD) GAPAGPLIVPYNLPLPGGVVPRMLITILGTVKPNANRIALDFQRGNDVAFHFNPRFNENNRRVIVCNTKLDNNWGREERQSVFPFESGKPFKIQVLVEPDHFKVAVNDAALLQYNHRVKKLNEISKLGISGDIDLTSASYTMI
